Data on 22 molecules can be found in patent publication US20180155451A1 (published 2018).

B1: GpH7-A5/GpH7-B3 variant D270_19Q/GpL16-k0 (antibody, human IgG1, kappa)
heavy 1: not shown
heavy 2: not shown
light: DIVMTQSPLSLPVTPGEPASISCQASESLVHSNRNTYLHWYLQKPGQSPQLLIYKVSNRFSGVPDRFSGSGSGTDFTLKISRVEAEDVGVYYCSQNTHVPPTFGQGTKVEIERTVAAPSVFIFPPSDEQLKSGTASVVCLLNNFYPREAKVQWKVDNALQSGNSQESVTEQDSKDSTYSLSSTLTLSKADYEKHKVYACEVTHQGLSSPVTKSFNRGEC
notes: heterodimerized anti-glypican-3 IgG1; alteration in the GpH7-B3 chain only; also called He Ab
B2: GpH7-A5/GpH7-B3 variant D270_04F/GpL16-k0 (antibody, human IgG1, kappa)
heavy 1: not shown
heavy 2: not shown
light: B1 light
notes: as for B1
B3: GpH7-A5/GpH7-B3 variant D270_12R/GpL16-k0 (antibody, human IgG1, kappa)
heavy 1: not shown
heavy 2: not shown
light: B1 light
notes: as for B1
B4: GpH7-A5/GpH7-B3 variant A330_16H/GpL16-k0 (antibody, human IgG1, kappa)
heavy 1: not shown
heavy 2: not shown
light: B1 light
notes: as for B1
B5: GpH7-A5/GpH7-B3 variant A330_14T/GpL16-k0 (antibody, human IgG1, kappa)
heavy 1: not shown
heavy 2: not shown
light: B1 light
notes: as for B1
B6: GpH7-A5/GpH7-B3 variant E333_03V/GpL16-k0 (antibody, human IgG1, kappa)
heavy 1: not shown
heavy 2: not shown
light: B1 light
notes: as for B1
B7: GpH7-A5/GpH7-B3 variant A330_03V/GpL16-k0 (antibody, human IgG1, kappa)
heavy 1: not shown
heavy 2: not shown
light: B1 light
notes: as for B1
B8: GpH7-A5/GpH7-B3 variant D270_18N/GpL16-k0 (antibody, human IgG1, kappa)
heavy 1: not shown
heavy 2: not shown
light: B1 light
notes: as for B1
B9: GpH7-A5/GpH7-B3 variant A330_08L/GpL16-k0 (antibody, human IgG1, kappa)
heavy 1: not shown
heavy 2: not shown
light: B1 light
notes: as for B1
B10: GpH7-A5/GpH7-B3 variant P271_04F/GpL16-k0 (antibody, human IgG1, kappa)
heavy 1: not shown
heavy 2: not shown
light: B1 light
notes: as for B1
B11: GpH7-A5/GpH7-B3 variant A330_18N/GpL16-k0 (antibody, human IgG1, kappa)
heavy 1: not shown
heavy 2: not shown
light: B1 light
notes: as for B1
B12: GpH7-A5/GpH7-B3 variant A330_11K/GpL16-k0 (antibody, human IgG1, kappa)
heavy 1: not shown
heavy 2: not shown
light: B1 light
notes: as for B1
B13: GpH7-A5/GpH7-B3 variant E333_06M/GpL16-k0 (antibody, human IgG1, kappa)
heavy 1: not shown
heavy 2: not shown
light: B1 light
notes: as for B1
B14: GpH7-A5/GpH7-B3 variant A330_15Y/GpL16-k0 (antibody, human IgG1, kappa)
heavy 1: not shown
heavy 2: not shown
light: B1 light
notes: as for B1
B15: GpH7-A5/GpH7-B3 variant E333_07I/GpL16-k0 (antibody, human IgG1, kappa)
heavy 1: not shown
heavy 2: not shown
light: B1 light
notes: as for B1
B16: GpH7-A5/GpH7-B3 variant E333_05P/GpL16-k0 (antibody, human IgG1, kappa)
heavy 1: not shown
heavy 2: not shown
light: B1 light
notes: as for B1
B17: GpH7-A5/GpH7-B3 variant D270_16H/GpL16-k0 (antibody, human IgG1, kappa)
heavy 1: not shown
heavy 2: not shown
light: B1 light
notes: as for B1
B18: GpH7-A5/GpH7-B3 variant A330_20W/GpL16-k0 (antibody, human IgG1, kappa)
heavy 1: not shown
heavy 2: not shown
light: B1 light
notes: as for B1
B19: GpH7-A5/GpH7-B3 variant D270_02A/GpL16-k0 (antibody, human IgG1, kappa)
heavy 1: not shown
heavy 2: not shown
light: B1 light
notes: as for B1
B20: GpH7-A5/GpH7-B3 variant A330_09D/GpL16-k0 (antibody, human IgG1, kappa)
heavy 1: not shown
heavy 2: not shown
light: B1 light
notes: as for B1
B21: GpH7-A5/GpH7-B3 variant E333_02A/GpL16-k0 (antibody, human IgG1, kappa)
heavy 1: not shown
heavy 2: not shown
light: B1 light
notes: as for B1
B22: GpH7-A5/GpH7-B3 variant D270_13S/GpL16-k0 (antibody, human IgG1, kappa)
heavy 1: not shown
heavy 2: not shown
light: B1 light
notes: as for B1

In one experiment the target is T1, FcγRIa extracellular domain with C-terminal His tag (human, UniProt P12314 16-292).
T1 construct: extracellular domain; soluble receptor expressed in FreeStyle293 cells, used as analyte in Biacore; also called FcgRI; 1a; not shown: His tag attached to the C terminus
T1 sequence (P12314 16-292): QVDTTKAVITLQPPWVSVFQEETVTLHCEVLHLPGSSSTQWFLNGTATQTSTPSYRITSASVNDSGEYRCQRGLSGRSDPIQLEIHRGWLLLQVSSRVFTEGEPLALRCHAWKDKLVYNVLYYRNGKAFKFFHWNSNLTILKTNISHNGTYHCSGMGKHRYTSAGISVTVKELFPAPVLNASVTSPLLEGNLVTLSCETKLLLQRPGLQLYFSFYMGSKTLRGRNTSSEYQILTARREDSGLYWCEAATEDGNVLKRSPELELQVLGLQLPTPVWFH
Briefly: SPR (Biacore), antibody captured on antigen peptide chip, FcγR as analyte; relative binding. In general terms: SPR reads the build-up and loss of mass on a sensor chip optically.
On to B1, for which the He/Con_1a is 78.2 % of control GpH7-A5/GpH7-B3/GpL16-k0 (=100).
Same read-out and setting: then B2, with 78.1 % of control GpH7-A5/GpH7-B3/GpL16-k0 (=100); and B3, with 66.3 % of control GpH7-A5/GpH7-B3/GpL16-k0 (=100); and B4, with 106 % of control GpH7-A5/GpH7-B3/GpL16-k0 (=100).
Same read-out and setting: then B5, with 105 % of control GpH7-A5/GpH7-B3/GpL16-k0 (=100); and B6, with 105 % of control GpH7-A5/GpH7-B3/GpL16-k0 (=100); and B7, with 106 % of control GpH7-A5/GpH7-B3/GpL16-k0 (=100).
Same read-out and setting: then B8, with 67.8 % of control GpH7-A5/GpH7-B3/GpL16-k0 (=100); and B9, with 107 % of control GpH7-A5/GpH7-B3/GpL16-k0 (=100); and B10, with 102 % of control GpH7-A5/GpH7-B3/GpL16-k0 (=100).
B11: the He/Con_1a was 106 % of control GpH7-A5/GpH7-B3/GpL16-k0 (=100).
Same read-out and setting: then B12, with 103 % of control GpH7-A5/GpH7-B3/GpL16-k0 (=100); and B13, with 102 % of control GpH7-A5/GpH7-B3/GpL16-k0 (=100); and B14, with 105 % of control GpH7-A5/GpH7-B3/GpL16-k0 (=100).
Same read-out and setting: then B15, with 102 % of control GpH7-A5/GpH7-B3/GpL16-k0 (=100); and B16, with 102 % of control GpH7-A5/GpH7-B3/GpL16-k0 (=100); and B17, with 66 % of control GpH7-A5/GpH7-B3/GpL16-k0 (=100).
Turning to B18, the He/Con_1a was 108 % of control GpH7-A5/GpH7-B3/GpL16-k0 (=100).
Same read-out and setting: for B19 the value was 71.5 % of control GpH7-A5/GpH7-B3/GpL16-k0 (=100); for B20, 109 % of control GpH7-A5/GpH7-B3/GpL16-k0 (=100); for B21, 103 % of control GpH7-A5/GpH7-B3/GpL16-k0 (=100).
With B22, the He/Con_1a was 75.3 % of control GpH7-A5/GpH7-B3/GpL16-k0 (=100).

A further experiment deals with T2, FcγRIIb extracellular domain with C-terminal His tag (human, UniProt P31994 43-217).
T2 construct: extracellular domain; soluble receptor expressed in FreeStyle293 cells, used as analyte in Biacore; also called FcgRIIb; 2b; not shown: His tag attached to the C terminus
T2 sequence (looked up): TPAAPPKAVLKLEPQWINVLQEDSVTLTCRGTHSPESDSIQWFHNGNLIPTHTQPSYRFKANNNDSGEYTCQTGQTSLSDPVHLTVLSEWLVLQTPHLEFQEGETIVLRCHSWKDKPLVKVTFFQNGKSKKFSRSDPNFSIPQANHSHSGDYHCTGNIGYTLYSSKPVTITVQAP
The experiment is described as above.
As to B1, the He/Con_2b was 48 % of control GpH7-A5/GpH7-B3/GpL16-k0 (=100).
The same measure, in the same setting: then B2, with 53.1 % of control GpH7-A5/GpH7-B3/GpL16-k0 (=100).
The same measure, in the same setting: for B3 the value was 18.3 % of control GpH7-A5/GpH7-B3/GpL16-k0 (=100); for B4, 87.6 % of control GpH7-A5/GpH7-B3/GpL16-k0 (=100).
B5: the He/Con_2b is 77.9 % of control GpH7-A5/GpH7-B3/GpL16-k0 (=100).
Still for that read-out and setting: then B6, with 93.2 % of control GpH7-A5/GpH7-B3/GpL16-k0 (=100); and B7, with 52.4 % of control GpH7-A5/GpH7-B3/GpL16-k0 (=100).
Same read-out and setting: then B8, with 40.3 % of control GpH7-A5/GpH7-B3/GpL16-k0 (=100).
Consider B9, for which the He/Con_2b was 70.5 % of control GpH7-A5/GpH7-B3/GpL16-k0 (=100).
Same read-out and setting: then B10, with 59.5 % of control GpH7-A5/GpH7-B3/GpL16-k0 (=100); and B11, with 63.7 % of control GpH7-A5/GpH7-B3/GpL16-k0 (=100).
Same read-out and setting: for B12 the value was 95 % of control GpH7-A5/GpH7-B3/GpL16-k0 (=100); for B13, 85.4 % of control GpH7-A5/GpH7-B3/GpL16-k0 (=100).
B14: the He/Con_2b is 95 % of control GpH7-A5/GpH7-B3/GpL16-k0 (=100).
The same measure, in the same setting: for B15 the value was 96.2 % of control GpH7-A5/GpH7-B3/GpL16-k0 (=100).
B16: the He/Con_2b is 97.7 % of control GpH7-A5/GpH7-B3/GpL16-k0 (=100).
Same read-out and setting: for B17 the value was 47.2 % of control GpH7-A5/GpH7-B3/GpL16-k0 (=100).
Same read-out and setting: for B18 the value was 76.1 % of control GpH7-A5/GpH7-B3/GpL16-k0 (=100).
Same read-out and setting: for B19 the value was 48.3 % of control GpH7-A5/GpH7-B3/GpL16-k0 (=100).
On to B20, for which the He/Con_2b was 55.6 % of control GpH7-A5/GpH7-B3/GpL16-k0 (=100).
Same read-out and setting: then B21, with 83.8 % of control GpH7-A5/GpH7-B3/GpL16-k0 (=100); and B22, with 44.2 % of control GpH7-A5/GpH7-B3/GpL16-k0 (=100).
